T1: Cynomolgus IL-1α (cynomolgus, UniProt P79340 113-271, limits assumed)
T1 sequence (looked up): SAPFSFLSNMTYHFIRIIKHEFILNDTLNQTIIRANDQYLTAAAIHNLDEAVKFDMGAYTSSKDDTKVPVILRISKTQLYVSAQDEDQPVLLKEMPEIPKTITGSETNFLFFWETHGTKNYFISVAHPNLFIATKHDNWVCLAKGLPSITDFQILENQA

T2: Recombinant Human IL-1α (human, UniProt P01583 113-271)
T2 construct: Bought recombinant protein; Biotinylated in the capture ELISA; also called hIL-1α; IL-1 alpha
T2 sequence (looked up): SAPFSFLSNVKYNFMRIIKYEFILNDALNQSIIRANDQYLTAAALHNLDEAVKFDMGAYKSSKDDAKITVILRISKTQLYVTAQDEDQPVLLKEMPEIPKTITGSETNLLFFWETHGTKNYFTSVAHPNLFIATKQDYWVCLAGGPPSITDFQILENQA

T3: Cynomolgus IL-1β (cynomolgus, UniProt P79182 117-268, limits assumed)
T3 sequence (looked up): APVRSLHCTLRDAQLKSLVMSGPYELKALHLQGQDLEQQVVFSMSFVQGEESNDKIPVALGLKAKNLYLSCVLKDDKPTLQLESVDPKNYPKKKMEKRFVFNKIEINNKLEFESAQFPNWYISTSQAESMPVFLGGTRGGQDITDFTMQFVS


Assays:
Cynomolgus IL-1α [1] = target: T1, Cynomolgus IL-1α; experiment: cell-based or functional assay
Recombinant Human IL-1α [2] = target: T2, Recombinant Human IL-1α; experiment: SPR (BIACORE), human antigen
Experimental: (§1) The BIACORE assay (Biacore, Inc, Piscataway, N.J.) determines the affinity of antibodies or DVD-Ig molecule with kinetic measurements of on-rate and off-rate constants. Binding of antibodies or DVD-Ig molecule to a target antigen (for example, a purified recombinant target antigen) is determined by surface plasmon resonance-based measurements with a Biacore® 1000 or 3000 instrument (Biacore® AB, Uppsala, Sweden) using running HBS-EP (10 mM HEPES [pH 7.4], 150 mM NaCl, 3 mM EDTA, and 0.005% surfactant P20) at 25° C. All chemicals are obtained from Biacore® AB (Uppsala, Sweden) or otherwise from a different source as described in the text. For example, approximately 5000 RU of goat anti-mouse IgG, (Fcγ), fragment specific polyclonal antibody (Pierce Biotechnology Inc, Rockford, Ill.) diluted in 10 mM sodium acetate (pH 4.5) is directly immobilized across a CM5 research grade biosensor chip using a standard amine coupling kit according to manufacturer's instructions and procedures at 25 μg/ml. Unreacted moieties on the biosensor surface are blocked with ethanolamine. Modified carboxymethyl dextran surface in flowcell 2 and 4 is used as a reaction surface. Unmodified carboxymethyl dextran without goat anti-mouse IgG in flow cell 1 and 3 is used as the reference surface. For kinetic analysis, rate equations derived from the 1:1 Langmuir binding model are fitted simultaneously to association and dissociation phases of all eight injections (using global fit analysis) with the use of Biaevaluation 4.0.1 software. Purified antibodies or DVD-Ig molecule are diluted in HEPES-buffered saline for capture across goat anti-mouse IgG specific reaction surfaces. Antibodies or DVD-Ig molecule to be captured as a ligand (25 μg/ml) are injected over reaction matrices at a flow rate of 5 μl/min. The association and dissociation rate constants, kₒₙ (M⁻¹s⁻¹) and koff (s⁻¹) are determined under a continuous flow rate of 25 μl/minute. Rate constants are derived by making kinetic binding measurements at different antigen concentrations ranging from 10-200 nM. The equilibrium dissociation constant (M) of the reaction between antibodies or DVD-Ig molecules and the target antigen is then calculated from the kinetic rate constants by the following formula: KD=koff/kₒₙ. Binding is recorded as a function of time and kinetic rate constants are calculated.

Recombinant Human IL-1β [3] = target: T4, Recombinant Human IL-1β (human, UniProt P01584 117-269); experiment: SPR (BIACORE), human antigen
T4 construct: Bought recombinant protein; Biotinylated in the capture ELISA; also called hIL-1β; IL-1 beta
Experimental: as §1

Cynomolgus IL-1β = target: T3, Cynomolgus IL-1β; experiment: cell-based or functional assay
Recombinant Human IL-1β [4] = target: T4, Recombinant Human IL-1β; experiment: cell-based or functional assay
Recombinant Human IL-1α [5] = target: T2, Recombinant Human IL-1α; experiment: cell-based or functional assay
Cynomolgus IL-1α [6] = target: T1, Cynomolgus IL-1α; experiment: SPR (BIACORE), cynomolgus antigen
Recombinant Human IL-1α [7] = target: T2, Recombinant Human IL-1α; experiment: capture ELISA: antibody captured by anti-human Fc, biotinylated antigen titrated
Experimental: Plates were washed five times in washing buffer (PBS containing 0.05% Tween 20) and blocked for 1 hour at 25° C. with 200 μl per well superblock blocking buffer (Thermo scientific, #37515). Blocking buffer was removed, and 2 μg/ml of each antibody or DVD-Ig molecule in PBS containing 10% superblock, 0.5% Tween-20 was added to the wells at 100 μl per well and incubated at 25° C. for 1 hour. The wells were washed five times in 1×PBST, and 1 μg/ml biotinylated antigen was titrated at 1:6 serial dilutions (for a range of μg to pg in PBS containing 10% superblock, 0.05% tween 20). Each dilution of antigen was then added to the plates and incubated for 1 hour at 25° C. The wells were washed five times in 1×PBST and incubated for 1 hour at 25° C. with polyHRP streptavidin (KPL #474-3000, Gaithersburg, Md.). The wells were washed five times in 1×PBST, and 100 μl of ULTRA-TMB ELISA (Pierce, Rockford, Ill.) were added per well. Following color development the reaction was stopped with 1N HCL and absorbance at 450 nm is measured.

Row | Binder | Cyno IL-1α Neutralization Assay EC50 (IL-1 induced hIL-8, MRC-5 cells) (Cynomolgus IL-1α [1]) [nM] | Kd (Recombinant Human IL-1α [2]) [nM] | koff (Recombinant Human IL-1α [2]) [s⁻¹] | kon (Recombinant Human IL-1α [2]) [M⁻¹ s⁻¹] | Kd (Recombinant Human IL-1β [3]) [nM] | koff (Recombinant Human IL-1β [3]) [s⁻¹] | kon (Recombinant Human IL-1β [3]) [M⁻¹ s⁻¹] | Cyno IL-1β Neutralization Assay EC50 (IL-1 induced hIL-8, MRC-5 cells) (Cynomolgus IL-1β) [nM] | Human IL-1β Neutralization Assay EC50 (IL-1 induced hIL-8, MRC-5 cells) (Recombinant Human IL-1β [4]) [nM] | Human IL-1α Neutralization Assay EC50 (IL-1 induced hIL-8, MRC-5 cells) (Recombinant Human IL-1α [5]) [nM] | Kd (Cynomolgus IL-1α [6]) [nM] | koff (Cynomolgus IL-1α [6]) [s⁻¹] | kon (Cynomolgus IL-1α [6]) [M⁻¹ s⁻¹] | EC50 (Recombinant Human IL-1α [7]) [nM]
1 | E26.13-SS-3D12.10/15 (bispecific antibody, human IgG1, kappa, L234A L235A, DVD-Ig, outer (N-terminal) domain anti-IL-1β, inner domain anti-IL-1α, short linkers) heavy: not shown light: DIQMTQSPSSLSASVGDRVTITCRASGNIHNYLTWYQQTPGKAPKLLIYNAKTLADGVPSRFSGSGSGTDYTFTISSLQPEDIATYYCQHFWSIPYTFGQGTKLQITRTVAAPDIQMTQSPSSLSASVGDRVTITCRASQDISNMLNWYQQKPGKTPKLLIYYTSRLYPGVPSRFSGSGSGTDYTFTISSLQPEDIATYFCQQGKTLPYAFGQGTKLEIKRTVAAPSVFIFPPSDEQLKSGTASVVCLLNNFYPREAKVQWKVDNALQSGNSQESVTEQDSKDSTYSLSSTLTLSKADYEKHKVYACEVTHQGLSSPVTKSFNRGEC | 0.0626 | 0.569 | 3.25e-05 | 56900 | 0.0161 | 2.65e-05 | 1.66e+06 | 0.0056 | 0.0099 | 0.0538 | – | – | – | –
2 | 3D12.10/15 (antibody, human IgG1, kappa, L234A L235A, V domains shown, Parent anti-IL-1α antibody; also called 3D12 10/15VH; 3D12 10/15VL) VH: EVQLVQSGAEVKKPGVSVKVSCKASGYTFTTYGMHWVRQAPGQGLEWMGWINTYTGESTYADDFQGRVTFTLDTSTSTAYMELSSLRSEDTAVYFCARGIYYYGSSYAMNYWGQGTTVTVSS VL: DIQMTQSPSSLSASVGDRVTITCRASQDISNMLNWYQQKPGKTPKLLIYYTSRLYPGVPSRFSGSGSGTDYTFTISSLQPEDIATYFCQQGKTLPYAFGQGTKLEIKR | 0.0126 | 0.115 | 4.1e-05 | 355000 | – | – | – | – | – | 0.0057 | 0.0578 | 2.25e-05 | 389000 | 0.007

Results, then the binder that gave them:

Row | Cyno IL-1α Neutralization Assay EC50 (IL-1 induced hIL-8, MRC-5 cells) (Cynomolgus IL-1α [1]) [nM] | Kd (Recombinant Human IL-1α [2]) [nM] | koff (Recombinant Human IL-1α [2]) [s⁻¹] | kon (Recombinant Human IL-1α [2]) [M⁻¹ s⁻¹] | Kd (Recombinant Human IL-1β [3]) [nM] | koff (Recombinant Human IL-1β [3]) [s⁻¹] | kon (Recombinant Human IL-1β [3]) [M⁻¹ s⁻¹] | Cyno IL-1β Neutralization Assay EC50 (IL-1 induced hIL-8, MRC-5 cells) (Cynomolgus IL-1β) [nM] | Human IL-1β Neutralization Assay EC50 (IL-1 induced hIL-8, MRC-5 cells) (Recombinant Human IL-1β [4]) [nM] | Human IL-1α Neutralization Assay EC50 (IL-1 induced hIL-8, MRC-5 cells) (Recombinant Human IL-1α [5]) [nM] | Kd (Cynomolgus IL-1α [6]) [nM] | koff (Cynomolgus IL-1α [6]) [s⁻¹] | kon (Cynomolgus IL-1α [6]) [M⁻¹ s⁻¹] | EC50 (Recombinant Human IL-1α [7]) [nM] | Binder
3 | 0.081 | 0.403 | 2.34e-05 | 58100 | 0.00611 | 7.85e-06 | 1.28e+06 | 0.0121 | 0.002 | 0.0479 | – | – | – | – | E26.35-SS-3D12.10/15 (bispecific antibody, human IgG1, kappa, L234A L235A, DVD-Ig, outer domain anti-IL-1β, inner domain anti-IL-1α, short linkers) heavy: not shown light: DIQMTQSPSSLSASVGDRVTITCRASGNIHNYLTWYQQTPGKAPKLLIYNAKTLADGVPSRFSGSGSGTDYTFTISSLQPEDIATYYCQHFWSIPYTFGQGTKLQITRTVAAPDIQMTQSPSSLSASVGDRVTITCRASQDISNMLNWYQQKPGKTPKLLIYYTSRLYPGVPSRFSGSGSGTDYTFTISSLQPEDIATYFCQQGKTLPYAFGQGTKLEIKRTVAAPSVFIFPPSDEQLKSGTASVVCLLNNFYPREAKVQWKVDNALQSGNSQESVTEQDSKDSTYSLSSTLTLSKADYEKHKVYACEVTHQGLSSPVTKSFNRGEC
4 | 0.0008 | 0.031 | 2.77e-05 | 900000 | – | – | – | – | – | 0.00056 | – | – | – | 0.072 | 3D12r16 (antibody, human IgG1, kappa, L234A L235A, V domains shown, Parent anti-IL-1α antibody; also called 3D12r16VH; 3D12r16VL) VH: EVQLVQSGAEVKKPGASVKVSCKASGYTFKYYGMNWVRQAPGQGLERMGWINTYTGQSTYADDFKGRVTFTLDTSTSTAYMELSSLRSEDTAVYYCARDIYYYGSDFAMDYWGQGTTVTVSS VL: DIQMTQSPSSLSASVGDRVTITCRASQDISNMLNWYQQKPGKAPKLLIYYTSRLKPGVPSRFSGSGSGTDYTFTISSLQPEDIATYFCQQGKTAPYTFGQGTKLEIKR

Source: patent publication US20120189541A1 (AbbVie / Abbott, published 2012)
